From patent US20260234121A1, “DERIVATIVES, IMMUNOGENS, AND ANTIBODIES AND USE OF THE SAME IN DETECTION OF ECSTASY-CLASS COMPOUNDS” (Siemens Healthcare Diagnostics Inc., priority 2023, published 2026)

Assays:
E1-OVA (55) = assay: ELISA binding of hybridoma supernatant to E1-OVA (55) coated plates, without inhibitor; settings: hybridoma supernatant mixed with PBS alone
In short: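 Competitive ELISA at rt: hybridoma supernatant mixed 1:1 with PBS alone or PBS containing 20 μg/mL MDA or MDMA (stock), incubated 1 h on plates coated with 1 μg/mL E1-OVA (55). Bound mAb detected with anti-mouse IgG (Fc)-HRP/TMB at OD650; % inhibition derived from OD with vs without inhibitor.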

[1] = Competitive ELISA screening of hybridoma supernatants on E1-OVA (55), inhibitor MDMA; format: binding
Method: (§1) Competitive ELISA was used to assess the presence of anti-Ecstasy-class antibodies in animal sera, hybridoma supernatants, and monoclonal antibody (mAb) samples as well as to estimate the level of antibody cross reactivity to amphetamine (Amph) and methamphetamine (mAmph). Antisera and antibody samples were used at the dilution giving a response of about OD=1 at 650 nm (OD650 nm) in an indirect ELISA. Hybridoma supernatants were diluted 1:2 in PBS. (±)-MDMA, (±)-MDA, (±)-amphetamine, and (±)-methamphetamine were used as inhibitors (Cerilliant Corporation, Round Rock, TX). Microtiter ELISA plates were coated and blocked as described above for indirect ELISA. The inhibitors were serially diluted in PBS. 25 μL of the diluted inhibitor was mixed with 25 μL of fixed appropriate antiserum or antibody sample dilution. The mixture was incubated over the E1-OVA (55) solid phase for 1 h. The plates were washed as described above and the bound antibodies were detected with anti-rabbit or anti-mouse IgG HRP-conjugates and TMB substrate as described above.
(§2) The supernatants were screened in a competitive ELISA for the presence of anti-ecstasy compound monoclonal antibodies (mAbs) as follows. 25 μL of the hybridoma supernatant was mixed with equal volume of PBS alone or containing 20 μg/mL inhibitor (MDA or MDMA) were incubated for 1 h in the wells of E1-OVA (55) coated ELISA plates. The plates were washed and the presence of bound mAbs were detected using goat anti-mouse IgG (Fc)-HRP conjugate and TMB substrate as described above. The level of inhibition of mAb/E1-OVA (55) binding in the presence of the inhibitor was estimated using a Percent (%) Inhibition calculated by the below formula:
(§3) [formula] • where “OD650 nm w/o Inhibitor” is the binding response of the antibody sample diluted in PBS alone (with no inhibitor), and the “OD650 nm with Inhibitor” is the binding response of the same antibody sample in the presence of 10 μg/mL of inhibitor (i.e., MDA or MDMA).

[2] = Prototype EMIT ecstasy assay, cross-reactivity with methamphetamine; format: biochemical; settings: conjugate Compound 58; negative urine pool
[3] = Competitive ELISA screening of hybridoma supernatants on E1-OVA (55), inhibitor MDA; format: binding
Method: as §1, §2, §3

[4] = Prototype EMIT ecstasy assay, cross-reactivity with amphetamine; format: biochemical; settings: conjugate Compound 58; negative urine pool
[5] = Competitive ELISA of purified antibodies on E1-OVA (55), MDMA and MDA reactivity; format: binding; settings: 10,000-0.1 ng/mL range of drug concentration
Method: as §1
(§4) The anti-ecstasy class mAbs were purified from clarified and filtered hybridoma culture supernatants on a recombinant Protein A Sepharose Fast Flow (GE Life Sciences, Boston USA), dialyzed against PBS containing 0.02% sodium azide and stored at 4° C. The purified mAbs were tested for MDA and MDMA reactivity as well as amphetamine (Amph) and methamphetamine (mAmph) cross reactivity in a competitive assay.

[6] = Competitive ELISA of purified antibodies on E1-OVA (55), amphetamine and methamphetamine cross reactivity; format: binding
Method: as §1, §4

[7] = inhibition of mAb/E1-OVA (55) binding

B1: 178K 2B7 mAb: mouse monoclonal antibody raised against E1-KLH (56); IgG2b, κ; heavy chain SEQ ID NO 87, light chain SEQ ID NO 111 (antibody)
heavy: MNFGLSLIFLALILKGVQCEVQLVESGGDLVRPGGSLKLSCASSGFIFSNYVMSWVRQTPDKRLEWVATINSGGRFTYYPDSVKGRFTISRDNAKNTLFLQMNSLKPEDTAIYYCAGGNNLDYWGQGTTLTVSSAKTTPPSVYPLAPGCGDTTGSSVTLGCLVKGYFPESVTVTWNSGSLSSSVHTFPALLQSGLYTMSSSVTVPSSTWLSQTVTCSVAHPASSTTVDKKLEPSGPISTIKPCPPCKECHKCPAPNLEGGPSVFIFPPNIKDVLMISLTPKVTCVVVDVSEDDPDVQISWFVNNVEVHTAQTQTHREDYNSTIRVVSALPIQHQDWMSGKEFKCKVNNKDLPSPIERTISKIKGLVRAPQVYILPPPAEQLSRKDVSLTCLVVGFNPGDISVEWTSNGHTEENYKDTAPILDSDGSYFIYSKLNMKTSKWEKTDSFSCNVRHEGLKNNYLKKTISRSPGK
light: MRFSAQLLGLLVLWIPGSTADIVMTQAEFSNPVTLGTSASISCRSSKSLLQRSGITYLYWYLQKPGQSPQLLIYRMSNLASGVPDRFSSSGSGTDFTLRISRVEAEDVGVYYCGQDMELPYTFGGGTKLEIKRADAAPTVSIFPPSSEQLTSGGASVVCFLNNFYPKDINVKWKIDGSERQNGVLNSWTDQDSKDSTYSMSSTLTLTKDEYERHNSYTCEATHKTSTSPIVKSFNRNEC
E1-OVA (55) Binding, OD650 nm w/o inhib (E1-OVA (55)): 3.497 OD650 nm | E1-OVA (55) Binding, OD650 nm +MDMA ([1]; hybridoma supernatant in the presence of 10 μg/mL MDMA): 0.374 OD650 nm | % Inhibition by 10 μg/mL of MDMA [1, 7]: 89% | Concentrations (μg/mL) of Structurally Related Compounds Equivalent to 500 ng/mL MDMA Cutoffs, (+/−) mAmph [2]: 50 to 60 µg/mL | E1-OVA (55) Binding, OD650 nm +MDA ([3]; hybridoma supernatant in the presence of 10 μg/mL MDA): 0.429 OD650 nm | % Inhibition by 10 μg/mL of MDA [3, 7]: 88% | Concentrations (μg/mL) of Structurally Related Compounds Equivalent to 500 ng/mL MDMA Cutoffs, (+/−) Amph [4]: 40 to 45 µg/mL | relative sensitivity to MDMA and MDA in competitive ELISA [5]: bind MDMA stronger than MDA | cross reactivity in the presence of 1,000 ng/ml of Amph or mAmph [6]: do not show any significant cross reactivity
